# Assay results taken from IntAct's records for PubMed 19675567.
# B1: ATPase GET3 (Saccharomyces cerevisiae), Q12154 (parent)
# chain: MDLTVEPNLHSLITSTTHKWIFVGGKGGVGKTTSSCSIAIQMALSQPNKQFLLISTDPAHNLSDAFGEKFGKDARKVTGMNNLSCMEIDPSAALKDMNDMAVSRANNNGSDGQGDDLGSLLQGGALADLTGSIPGIDEALSFMEVMKHIKRQEQGEGETFDTVIFDTAPTGHTLRFLQLPNTLSKLLEKFGEITNKLGPMLNSFMGAGNVDISGKLNELKANVETIRQQFTDPDLTTFVCVCISEFLSLYETERLIQELISYDMDVNSIIVNQLLFAENDQEHNCKRCQARWKMQKKYLDQIDELYEDFHVVKMPLCAGEIRGLNNLTKFSQFLNKEYNPITDGKVIYELEDKE
# Variants of: B1
# Settings: with sc61b_human SEC61B
row,effect of a mutation on the interaction,Variant
1,decreasing interaction,C285S;C288S
